{
  "source": "paper PMC6222199",
  "about": "“Regulatory Targets of the Response Regulator RR_1586 from Clostridioides difficile Identified Using a Bacterial One-Hybrid Screen”",
  "binders": {"B1": {"name": "CDR20291_1583 site (dsDNA)", "DNA 1": "AGGAATTAAGGAGCAATTAAATGATG", "DNA 2": "CATCATTTAATTGCTCCTTAATTCCT"}},
  "target": "RR_1586 D50G (Clostridioides difficile R20291, UniProt A0A9R0BKD1 1-223, D50G)",
  "assay": "EMSA; 10 mM Mg2+; phosphoramidate; EMSA: 5 pmol DNA in 10 ul (500 nM), 10 mM Tris pH 8, 50 mM NaCl, 10 mM MgCl2, room temperature 10 min; 10% PAGE 0.5x TBE on ice, ethidium bromide",
  "details": "protein: recombinant; tags: His6; chain copies: 2; blunt",
  "data": [
    {"binder": "B1", "values": [
      {"measurement": "binding result", "value": "binds"}
    ]}
  ]
}
